Experimental data from PMC4404995.

Substrate: CC(=O)c1ccc(O[C@@H]2O[C@H](CO)[C@@H](O)[C@H](O)[C@H]2O)cc1
Assay: LC-MS assay of aglycon release
Assay type: biochemical, Picea glauca
Settings: 0.01–2.0 mM picein, 20 mM MES-KOH, pH 6, 37°C, 1 h

B1: PgβGLU-1 (Picea glauca) (protein)
chain: TSPDLGRSSFPKGFKFGAGSSAYQDEGAALEGGKGPSIWDTFSHIQGKIEDGKNGDVAVDQYHRYKEDVRHLKYMGMDLYRFSISWSRIFPQGSPRHGGVNEEGITYYNNLINELLKNGMEPFVTLYHWDMPQALEDEYGGFRSQRVVEDIGTFAEECFRAFGDRVKYWTTINEPLTFTLYGYDLGIHAPGRCSPGFGNCTAGNSATEPYIVTHNMLLAHSAAVKTYRTKYQGKQKGSIGISLVVNWMVPYSNSLLDQEATQRAIDFRIGWFLDPLTSGKYPDSMRSLVGARLPRFSSEEAKDLKGSFDFLGYNYYQTYFTVNNPTPQNSLNTDYVLDAQANISQQVNGVYVGSSEGVSSFRSYPAGLREVINYTKHRYSNPPIYITETGYGDFDNGTTPLEEALQDSGRVEYYSKHLSSLLEAIREGADVRGYVVWSFLDGFEWASGYDYRFGLYYVDYNDNLKRYPRESANWFRNVLKS
For B1, the Km was 1.28 ± 0.53 mM.
